# In article PMC8730730:
# Legend:
# [1] = SEC-MALS; conditions: glycan lost; control: native rshACE2
# [2] = Mca-Ala-Pro-Lys(Dnp) hydrolysis, spectrofluorimetry; conditions: glycan lost; control: native rshACE2
substance,measurement,setting,value
"rshACE2 (recombinant soluble human ACE2, APN01): PNGase F (deglyco-rshACE2)",oligomerisation,[1],no change
same,"enzymatic_activity, percent_of_wt",[2],increases
